Source: PMC7614388, “Diversification in the inositol tris/tetrakisphosphate kinase (ITPK) family: crystal structure and enzymology of the outlier AtITPK4” (Biochemical Journal, 2023)

Substrate: Nc1ncnc2c1ncn2[C@@H]1O[C@H](COP(=O)(O)OP(=O)(O)OP(=O)(O)O)[C@@H](O)[C@H]1O
Test: HPLC kinase assay, Michaelis-Menten fit
Type: biochemical, Arabidopsis thaliana
Conditions: 1 mM Ins(1,4,6)P3, ATP 0-5 mM, 6 mM MgCl2, 20 mM HEPES pH 7.3, 25 °C, 3 µM enzyme

B1: AtITPK4 (Arabidopsis thaliana) (protein)
chain: MKGVLLDESVLFSPESEDSSPSLRESVPSLLRLLRYSMIRTGISYGLDLPENKVDLLRKTAAEYSINCLPLETSLTSVTFGDTLKAWYSDGSILYVASSRKEEILRELSPSQLVVLLDVEGDSLEDPNIIHIHSLEELPMTICCINKKAMGDGAAIVAYIMKPSRVEDFAKRGALPMYPTSCGLIFLPLMFEFPLASQLKHADIIFHKATDEILSIELNCSDSKSSVAVTFSTGMEKLKKYMEDQNACAIVDPIRNIYPVVDRLKMQHILLGLEGLGAAGRKIRGACFLKIDSYDEPDLAQNLSRAGLSLPCIVKPQVACGVADAHSMAIVFRVEDFKNLNTPVPAIIQEYVDHSSRIFKFYVLGETIFHAVKKSIPSSSSLRKSAEENGLKPILFDSLKSLPVDSANQNPVSEIDLELVTEAATWLRKKLDLTIFGFDVVIQEGTGDHVIVDLNYLPSFKEVPDNIAVPAFWEAIRNRFDQHVQEKH
notes: full-length; pOPINE, non-cleavable C-terminal 6xHis tag kept; Ni-NTA purified; HAD-like domain 1-150, ATP-grasp kinase domain from 151; no evidence of homo-oligomers
**Q.** B1 was tested. Which Km did it give?
**A.** 52 ± 7 µM
